Here are results for 21 molecules from patent US20240108738A1 (Bicycle, published 2024).

Numbered stars: 1 amine (or outer) side, 2 acyl side, 3 side chain; on linkers, the order of the positions; unused ones are H or OH. Bridge positions count the residues as written; N and C are the ends. Square brackets hold non-standard residues; d marks the D form. Ends that are not written are not given here. 4MeOPhe = 4-methoxy-phenylalanine, COc1ccc(C[C@H](N[*:1])C(=O)[*:2])cc1; TATA = O=C(CC[*:1])N1CN(C(=O)CC[*:2])CN(C(=O)CC[*:3])C1; Phe(4-CF3) = N[C@@H](Cc1ccc(C(F)(F)F)cc1)C(=O)O; Phe(4-CONH2) = NC(=O)c1ccc(C[C@H](N)C(=O)O)cc1; Phe(4-CN) = N#Cc1ccc(C[C@H](N)C(=O)O)cc1; Phe(4-F) = N[C@@H](Cc1ccc(F)cc1)C(=O)O; 1Nal = N[C@@H](Cc1cccc2ccccc12)C(=O)O; 2Nal = N[C@@H](Cc1ccc2ccccc2c1)C(=O)O; Ala(cPent) = N[C@@H](CC1CCCC1)C(=O)O; tBuAla = CC(C)(C)C[C@H](N)C(=O)O; Cba = N[C@@H](CC1CCC1)C(=O)O; Aib = CC(C)(N)C(=O)O

B1: BCY16142 (peptide)
peptide: ACYLPD[Phe(4-CF3)]LCGDEYCA-NH2
modifications: linker 2-9-14 via TATA; N-terminus assumed
SMILES: CC(C)C[C@@H]1NC(=O)[C@H](Cc2ccc(C(F)(F)F)cc2)NC(=O)[C@H](CC(=O)O)NC(=O)[C@@H]2CCCN2C(=O)[C@H](CC(C)C)NC(=O)[C@H](Cc2ccc(O)cc2)NC(=O)[C@@H](NC(=O)[C@H](C)N)CSCCC(=O)N2CN3CN(C2)C(=O)CCSC[C@@H](C(=O)N[C@@H](C)C(N)=O)NC(=O)[C@H](Cc2ccc(O)cc2)NC(=O)[C@H](CCC(=O)O)NC(=O)[C@H](CC(=O)O)NC(=O)CNC(=O)[C@H](CSCCC3=O)NC1=O
notes: scaffold TATA
B2: BCY15634 (peptide)
peptide: Ac-CYLPDYLCGDEYC-NH2
modifications: linker 1-8-13 via TATA; not fully specified
notes: scaffold TATA
B3: BCY15633 (peptide)
peptide: CYLPDYLCGDEYC-NH2
modifications: linker 1-8-13 via TATA; also: scaffold TATA, TATB or TBMT
notes: scaffold TATA
B4: BCY15643 (peptide)
peptide: ACYLPD[1Nal]LCGDEYCA-NH2
modifications: linker 2-9-14 via TATA; N-terminus assumed
SMILES: CC(C)C[C@@H]1NC(=O)[C@H](Cc2cccc3ccccc23)NC(=O)[C@H](CC(=O)O)NC(=O)[C@@H]2CCCN2C(=O)[C@H](CC(C)C)NC(=O)[C@H](Cc2ccc(O)cc2)NC(=O)[C@@H](NC(=O)[C@H](C)N)CSCCC(=O)N2CN3CN(C2)C(=O)CCSC[C@@H](C(=O)N[C@@H](C)C(N)=O)NC(=O)[C@H](Cc2ccc(O)cc2)NC(=O)[C@H](CCC(=O)O)NC(=O)[C@H](CC(=O)O)NC(=O)CNC(=O)[C@H](CSCCC3=O)NC1=O
notes: scaffold TATA
B5: BCY15635 (peptide)
peptide: Ac-ACYLPDYLCGDEYCA-NH2
modifications: linker 2-9-14 via TATA
notes: scaffold TATA
B6: BCY15649 (peptide)
peptide: ACYLPDW[Cba]CGDEYCA-NH2
modifications: linker 2-9-14 via TATA
notes: scaffold TATA
B7: BCY16140 (peptide)
peptide: ACYLPD[Phe(4-CONH2)]LCGDEYCA-NH2
modifications: linker 2-9-14 via TATA; N-terminus assumed
SMILES: CC(C)C[C@@H]1NC(=O)[C@H](Cc2ccc(C(N)=O)cc2)NC(=O)[C@H](CC(=O)O)NC(=O)[C@@H]2CCCN2C(=O)[C@H](CC(C)C)NC(=O)[C@H](Cc2ccc(O)cc2)NC(=O)[C@@H](NC(=O)[C@H](C)N)CSCCC(=O)N2CN3CN(C2)C(=O)CCSC[C@@H](C(=O)N[C@@H](C)C(N)=O)NC(=O)[C@H](Cc2ccc(O)cc2)NC(=O)[C@H](CCC(=O)O)NC(=O)[C@H](CC(=O)O)NC(=O)CNC(=O)[C@H](CSCCC3=O)NC1=O
notes: scaffold TATA
B8: BCY15648 (peptide)
peptide: ACYLPDW[tBuAla]CGDEYCA-NH2
modifications: linker 2-9-14 via TATA; N-terminus assumed
SMILES: CC(C)C[C@@H]1NC(=O)[C@H](Cc2ccc(O)cc2)NC(=O)[C@@H](NC(=O)[C@H](C)N)CSCCC(=O)N2CN3CN(C2)C(=O)CCSC[C@@H](C(=O)N[C@@H](C)C(N)=O)NC(=O)[C@H](Cc2ccc(O)cc2)NC(=O)[C@H](CCC(=O)O)NC(=O)[C@H](CC(=O)O)NC(=O)CNC(=O)[C@H](CSCCC3=O)NC(=O)[C@H](CC(C)(C)C)NC(=O)[C@H](Cc2c[nH]c3ccccc23)NC(=O)[C@H](CC(=O)O)NC(=O)[C@@H]2CCCN2C1=O
notes: scaffold TATA
B9: BCY15644 (peptide)
peptide: ACYLPD[2Nal]LCGDEYCA-NH2
modifications: linker 2-9-14 via TATA; N-terminus assumed
SMILES: CC(C)C[C@@H]1NC(=O)[C@H](Cc2ccc3ccccc3c2)NC(=O)[C@H](CC(=O)O)NC(=O)[C@@H]2CCCN2C(=O)[C@H](CC(C)C)NC(=O)[C@H](Cc2ccc(O)cc2)NC(=O)[C@@H](NC(=O)[C@H](C)N)CSCCC(=O)N2CN3CN(C2)C(=O)CCSC[C@@H](C(=O)N[C@@H](C)C(N)=O)NC(=O)[C@H](Cc2ccc(O)cc2)NC(=O)[C@H](CCC(=O)O)NC(=O)[C@H](CC(=O)O)NC(=O)CNC(=O)[C@H](CSCCC3=O)NC1=O
notes: scaffold TATA
B10: BCY16143 (peptide)
peptide: ACYLPD[Phe(4-CN)]LCGDEYCA-NH2
modifications: linker 2-9-14 via TATA; N-terminus assumed
SMILES: CC(C)C[C@@H]1NC(=O)[C@H](Cc2ccc(C#N)cc2)NC(=O)[C@H](CC(=O)O)NC(=O)[C@@H]2CCCN2C(=O)[C@H](CC(C)C)NC(=O)[C@H](Cc2ccc(O)cc2)NC(=O)[C@@H](NC(=O)[C@H](C)N)CSCCC(=O)N2CN3CN(C2)C(=O)CCSC[C@@H](C(=O)N[C@@H](C)C(N)=O)NC(=O)[C@H](Cc2ccc(O)cc2)NC(=O)[C@H](CCC(=O)O)NC(=O)[C@H](CC(=O)O)NC(=O)CNC(=O)[C@H](CSCCC3=O)NC1=O
notes: scaffold TATA
B11: BCY15100 (peptide)
peptide: ACYLPDYLCGDEYCA-NH2
modifications: linker 2-9-14 via TATA; also: scaffold TATA, TATB or TBMT
notes: scaffold TATA
B12: BCY15653 (peptide)
peptide: ACALPDYLCGDEYCA-NH2
modifications: linker 2-9-14 via TATA; also: cyclised with TATA, TATB or TBMT
notes: scaffold TATA
B13: BCY15661 (peptide)
peptide: ACYLPDYLCGDAYCA-NH2
modifications: linker 2-9-14 via TATA; also: cyclised with TATA, TATB or TBMT
notes: scaffold TATA
B14: BCY15662 (peptide)
peptide: ACYLPDYLCGDEACA-NH2
modifications: linker 2-9-14 via TATA; also: cyclised with TATA, TATB or TBMT
notes: scaffold TATA
B15: BCY15659 (peptide)
peptide: ACYLPDYLCADEYCA-NH2
modifications: linker 2-9-14 via TATA; also: cyclised with TATA, TATB or TBMT
notes: scaffold TATA
B16: BCY15655 (peptide)
peptide: ACYLADYLCGDEYCA-NH2
modifications: linker 2-9-14 via TATA; also: cyclised with TATA, TATB or TBMT
notes: scaffold TATA
B17: BCY16130 (peptide)
peptide: ACY[Ala(cPent)]PDYLCGDEYCA-NH2
modifications: linker 2-9-14 via TATA
notes: scaffold TATA
B18: BCY15642 (peptide)
peptide: ACYL[Aib]DYLCGDEYCA-NH2
modifications: linker 2-9-14 via TATA
notes: scaffold TATA
B19: BCY16134 (peptide)
peptide: [dA]CYLPDYLCGDEYC-NH2
modifications: linker 2-9-14 via TATA; N-terminus assumed
SMILES: CC(C)C[C@@H]1NC(=O)[C@H](Cc2ccc(O)cc2)NC(=O)[C@H](CC(=O)O)NC(=O)[C@@H]2CCCN2C(=O)[C@H](CC(C)C)NC(=O)[C@H](Cc2ccc(O)cc2)NC(=O)[C@@H](NC(=O)[C@@H](C)N)CSCCC(=O)N2CN3CN(C2)C(=O)CCSC[C@H](NC1=O)C(=O)NCC(=O)N[C@@H](CC(=O)O)C(=O)N[C@@H](CCC(=O)O)C(=O)N[C@@H](Cc1ccc(O)cc1)C(=O)N[C@H](C(N)=O)CSCCC3=O
notes: scaffold TATA
B20: BCY16136 (peptide)
peptide: ACYLPD[4MeOPhe]LCGDEYCA-NH2
modifications: linker 2-9-14 via TATA; N-terminus assumed
SMILES: COc1ccc(C[C@@H]2NC(=O)[C@H](CC(=O)O)NC(=O)[C@@H]3CCCN3C(=O)[C@H](CC(C)C)NC(=O)[C@H](Cc3ccc(O)cc3)NC(=O)[C@@H](NC(=O)[C@H](C)N)CSCCC(=O)N3CN4CN(C3)C(=O)CCSC[C@@H](C(=O)N[C@@H](C)C(N)=O)NC(=O)[C@H](Cc3ccc(O)cc3)NC(=O)[C@H](CCC(=O)O)NC(=O)[C@H](CC(=O)O)NC(=O)CNC(=O)[C@H](CSCCC4=O)NC(=O)[C@H](CC(C)C)NC2=O)cc1
notes: scaffold TATA
B21: BCY16135 (peptide)
peptide: ACYLPD[Phe(4-F)]LCGDEYCA-NH2
modifications: linker 2-9-14 via TATA; N-terminus assumed
SMILES: CC(C)C[C@@H]1NC(=O)[C@H](Cc2ccc(F)cc2)NC(=O)[C@H](CC(=O)O)NC(=O)[C@@H]2CCCN2C(=O)[C@H](CC(C)C)NC(=O)[C@H](Cc2ccc(O)cc2)NC(=O)[C@@H](NC(=O)[C@H](C)N)CSCCC(=O)N2CN3CN(C2)C(=O)CCSC[C@@H](C(=O)N[C@@H](C)C(N)=O)NC(=O)[C@H](Cc2ccc(O)cc2)NC(=O)[C@H](CCC(=O)O)NC(=O)[C@H](CC(=O)O)NC(=O)CNC(=O)[C@H](CSCCC3=O)NC1=O
notes: scaffold TATA

For this test, the target named is T1, Human NKp46 His tag (Acro Biosystems, NC1-H52H4) (human, UniProt O76036 22-255).
T1 construct: bought; also called human NKp46-his tagged protein
T1 sequence (O76036 22-255 limits assumed): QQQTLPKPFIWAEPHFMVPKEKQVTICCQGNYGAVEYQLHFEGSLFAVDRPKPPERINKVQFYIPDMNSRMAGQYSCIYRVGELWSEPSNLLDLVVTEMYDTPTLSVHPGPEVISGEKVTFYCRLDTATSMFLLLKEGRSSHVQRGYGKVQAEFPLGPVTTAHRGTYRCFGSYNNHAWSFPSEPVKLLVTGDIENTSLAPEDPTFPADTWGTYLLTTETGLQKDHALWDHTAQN
Put plainly: FP competition vs BCY15035. How it is done: The untagged competitor peptides were diluted in assay buffer 25 mM HEPES, 100 mM NaCl, 0.01% P20, pH 7.4. to a top concentration of 5000 nM and diluted 2-fold in 11 steps. The human NKp46-his tagged protein (AcroBiosystems) was diluted to 40 nM final concentration in the assay. […] The total volume of 25 μL was prepared in black walled and flat-bottomed low binding low volume 384 well plates. Measurements were performed using Envision (PerkinElmer) equipped with the excitation filter FITC FP 480, emission filter FITC FP P-pol 535 and 2nd emission filter FITC FP S-pol 535 and set to 30 flashes. The gain was set in a well containing tracer alone without target protein.
By Ki is commonly meant a measure of affinity in units of concentration, obtained from inhibition or displacement. Read a high Ki as weaker binding. In turn, B1 came in with a Ki of 0.317 µM. As for B2, the figure is 0.098 µM. With B3, the Ki was determined as 0.086 µM.

For B4, the Ki turned out to be 0.755 µM.

In turn, B5 yielded an inhibitory constant (Ki) of 0.061 µM. In turn, B6 displayed a Ki of 0.391 µM. As for B7, the figure is 0.122 µM; as for B8, 1.62 µM. In turn, B9 gave a Ki of 0.159 µM. This Ki is about 10-fold lower than that of the molecule before. As for B10, the figure is 0.464 µM. B11: the Ki was 0.049 µM. In the case of B12 it was 0.411 µM; in that of B13, 1.78 µM; in that of B14, 0.672 µM. In the case of B15 it was 0.226 µM. For the molecule B16, the Ki is 0.324 µM. In turn, B17 yielded a Ki of 0.321 µM.

The molecule B18 gave a Ki of 0.91 µM. Compared with the last molecule, the Ki is about 2.8-fold higher. Molecule B19 came in with a Ki of 0.077 µM. B20 gave a Ki of 0.269 µM. In the case of B21, the affinity corresponds to a Ki of 0.639 µM.
